Results from patent US20210253998A1 (published 2021).
Values belong to the binder of their own block, whether it stands above or below them.

Tests used:
[1] = target: T1, Mta2 (endogenous, mouse cells) (mouse, UniProt Q9R190 1-668); assay: co-IP from a control ESC line, western blot
T1 sequence (looked up): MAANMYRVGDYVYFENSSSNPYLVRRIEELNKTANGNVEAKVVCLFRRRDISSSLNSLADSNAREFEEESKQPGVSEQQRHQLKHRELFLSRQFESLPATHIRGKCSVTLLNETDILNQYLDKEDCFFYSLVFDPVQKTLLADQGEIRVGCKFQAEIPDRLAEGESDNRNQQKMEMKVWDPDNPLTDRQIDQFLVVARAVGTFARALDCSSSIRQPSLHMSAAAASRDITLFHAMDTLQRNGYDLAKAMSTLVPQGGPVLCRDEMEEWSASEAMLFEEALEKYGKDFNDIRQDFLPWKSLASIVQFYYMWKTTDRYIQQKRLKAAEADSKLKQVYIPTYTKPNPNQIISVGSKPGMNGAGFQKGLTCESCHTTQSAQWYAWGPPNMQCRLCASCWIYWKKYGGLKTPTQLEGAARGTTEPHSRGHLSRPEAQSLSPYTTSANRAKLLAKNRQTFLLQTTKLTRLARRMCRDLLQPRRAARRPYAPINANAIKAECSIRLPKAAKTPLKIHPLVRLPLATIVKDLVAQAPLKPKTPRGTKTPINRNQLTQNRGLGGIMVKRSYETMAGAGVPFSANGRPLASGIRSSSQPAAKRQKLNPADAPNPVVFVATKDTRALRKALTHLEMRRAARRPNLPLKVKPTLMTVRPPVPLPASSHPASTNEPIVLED

[2] = target: T2, Mbd2 (endogenous, mouse ESCs) (mouse, UniProt Q9Z2E1 1-414, limits assumed); assay: pull down of Mbd2 from a control ESC line, western blot
[3] = target: T2, Mbd2 (endogenous, mouse ESCs); assay: co-IP with flag beads from ESCs carrying a Flag-tagged Mbd3 transgene, western blot
From the text: FIG. 61A—The present inventors established an ESC line carrying recovery of Flag-tagged Mbd3 transgene inserted in Mbd3^{-/-} ESC line. […] Moreover, Mbd3 interacts with Sall4 pluripotency reprogramming factor in ESCs. […] These assays recapitulate observation in many other cell lines where Mbd2 and Mbd3 form mutually exclusive complexes (Le Guezennec, X. et al. Mol. Cell. Biol. 26, 843-851, 2006; Aguilera, C. et al. Nature 469, 231-235, 2011).

T2 sequence (Q9Z2E1 whole entry): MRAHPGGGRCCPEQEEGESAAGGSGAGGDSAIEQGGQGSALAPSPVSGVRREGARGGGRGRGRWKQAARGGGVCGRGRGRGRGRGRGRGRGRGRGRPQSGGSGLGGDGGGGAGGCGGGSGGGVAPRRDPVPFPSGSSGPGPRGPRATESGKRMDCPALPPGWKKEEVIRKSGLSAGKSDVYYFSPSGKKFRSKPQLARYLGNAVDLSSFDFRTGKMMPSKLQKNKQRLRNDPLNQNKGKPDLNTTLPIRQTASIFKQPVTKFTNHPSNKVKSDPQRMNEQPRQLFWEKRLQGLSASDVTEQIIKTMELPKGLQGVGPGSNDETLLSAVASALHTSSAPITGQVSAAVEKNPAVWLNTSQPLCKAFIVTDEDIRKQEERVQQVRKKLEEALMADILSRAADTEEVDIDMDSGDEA

- binding result [1]: binds
- binding result [2]: no binding
B1: Mbd3 (endogenous, mouse cells) (other, UniProt Q9Z2D8 1-285, looked up)
chain: MERKRWECPALPQGWEREEVPRRSGLSAGHRDVFYYSPSGKKFRSKPQLARYLGGSMDLSTFDFRTGKMLMNKMNKSRQRVRYDSSNQVKGKPDLNTALPVRQTASIFKQPVTKITNHPSNKVKSDPQKAVDQPRQLFWEKKLSGLSAFDIAEELVRTMDLPKGLQGVGPGCTDETLLSAIASALHTSTLPITGQLSAAVEKNPGVWLNTAQPLCKAFMVTDDDIRKQEELVQQVRKRLEEALMADMLAHVEELARDGEAPLDKACAEEEEEEEEEEEEPEPERV

- binding result [3]: no binding
B2: Flag-tagged Mbd3 (other)
chain: MERKRWECPALPQGWEREEVPRRSGLSAGHRDVFYYSPSGKKFRSKPQLARYLGGSMDLSTFDFRTGKMLMSKMNKSRQRVRYDSSNQVKGKPDLNTALPVRQTASIFKQPVTKITNHPSNKVKSDPQKAVDQPRQLFWEKKLSGLNAFDIAEELVKTMDLPKGLQGVGPGCTDETLLSAIASALHTSTMPITGQLSAAVEKNPGVWLNTTQPLCKAFMVTDEDIRKQEELVQQVRKRLEEALMADMLAHVEELARDGEAPLDKACAEDDDEEDEEEEEEEPDPDPEMEHV
notes: also called pCaggs-Flag-Mbd3; Flag-tagged Mbd3 transgene; not shown: Flag tag
